Patent US20050153366, “Protein-protein interaction antagonist screening libraries based upon 1,4-disubstituted naphthalenes and related scaffolds” (published 2005)

Molecular target: T1, PBX1 (residues 233-319) (mouse/human, UniProt P40424 P40424:233-319)
T1 sequence: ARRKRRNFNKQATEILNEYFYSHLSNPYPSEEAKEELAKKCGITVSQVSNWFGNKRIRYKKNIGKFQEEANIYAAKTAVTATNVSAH
Assay: EMSA; binary PBX1/DNA complex; inhibited by compound 31, not by compound 15
Conditions: label: 32P (Klenow fill-in with alpha-32P-dCTP); annealed with overhangs extended by Klenow

B1: HOXPBX-CT probe (dsDNA)
DNA 1: CTCTCCTTTTGATTGATTAA
DNA 2: AGAGCTTAATCAATCAAAAGG
- binding result: binds
